Assay results as given in patent US20200131274A1 (CRESCENDO BIOLOGICS, published 2020).
Changes are numbered by the printed parent chain. Numbers in names are those of the source.

B1: single VH domain antibody 1.11 (VHH)
VHH: EVQLLESGGGLVQPGGSLRLSCAASGFSFSSYALSWVRQAPGKGLEWVSSIGENNDTTDYADNVKGRFTISRDNSKNTLYLQMNSLRVEDTAVYYCVKDGVHWGQGTLVTVSS
notes: Human single VH domain antibody (Humabody)
B2: single VH domain antibody 1.18 (VHH)
VHH: B1 VHH with D56A, D62A, N63S
notes: as for B1
B3: single VH domain antibody 1.16 (VHH)
VHH: B1 VHH with D56H, N63T
notes: as for B1
B4: single VH domain antibody 2.22 (VHH)
VHH: EVQLVESGGGVVQPGRSLRLSCAASGFSFSGYGTHWVRQAPGKGLEWVAYISYDGSNKYYAAPVKGRFTISRDNSKNTLYLQMNSLRAEDTAVYYCAKDAAWGLRLGESSSYDFDIWGQGTMVTVSS
notes: Human single VH domain antibody (Humabody); C-terminal His tag, residues not tied
B5: single VH domain antibody 2.17 (VHH)
VHH: B4 VHH with T34M, G55A, A62D, P63N, A100P
notes: as for B4
B6: 1.11-6GS-2.1 (bispecific antibody)
chain: EVQLLESGGGLVQPGGSLRLSCAASGFSFSSYALSWVRQAPGKGLEWVSSIGENNDTTDYADNVKGRFTISRDNSKNTLYLQMNSLRVEDTAVYYCVKDGVHWGQGTLVTVSSGGGGSGGGGSGGGGSGGGGSGGGGSGGGGSEVQLVESGGGVVQPGRSLRLSCAASGFSFSGYGMHWVRQAPGKGLEWVAYISYDGSNKYYADSVKGRFTISRDNSKNTLYLQMNSLRAEDTAVYYCAKDPAWGLRLGESSSYDFDIWGQGTMVTVSS
notes: linker (G4S)6; also called 1.11-2.1
B7: 1.11-6GS-2.17 (bispecific antibody)
chain: B6 chain with G198A, S206N
notes: linker (G4S)6
B8: 1.16-6GS-2.17 (bispecific antibody)
chain: B6 chain with D56H, N63T, G198A, S206N
notes: linker (G4S)6
B9: 1.16-6GS-2.1 (bispecific antibody)
chain: B6 chain with D56H, N63T
notes: linker (G4S)6
B10: HiPEG D-His6 val-cit-PAB-MMAE (VHH)
VHH: EVQLLESGGGLVQPGGSLRLSCAASGFRISDEDMGWVRQAPGKGLEWVSSIYGPSGSTYYADSVKGRFTISRDNSKNTLYLQMNSLRAEDTAVYYCASALEPLSEPLGFWGQGTLVTVSS
modifications: HiPEG val-cit-PAB-MMAE attached via the C-terminal His6-tag
B11: single VH domain antibody 5.1 (VHH)
VHH: QVQLVESGGGVVQPGRSLRLSCAASGFTFNNYGMHWVRQAPGKGLEWVAIISYDGNTKYYTDSVKGRFTISRDNSKNTLYLQMNSLRVEDTAVYYCAKGLWPSDVWGQGTTVTVSS
notes: Human single VH domain antibody (Humabody); purified via the C-terminal His-tag, residues not tied
B12: 2.10 (VHH)
VHH: B4 VHH with S28T, T34M, K58R, A62D, P63S, N77K, Y80S, A100P
notes: On the sheet it is the filled up triangle; also called single VH domain antibody 2.10

Each binder was assayed against T1, human prostate specific membrane antigen (PSMA), full-length, on cells (human, UniProt Q04609 1-750) (assay: cell-based or functional assay).
T1 sequence (Q04609 whole entry): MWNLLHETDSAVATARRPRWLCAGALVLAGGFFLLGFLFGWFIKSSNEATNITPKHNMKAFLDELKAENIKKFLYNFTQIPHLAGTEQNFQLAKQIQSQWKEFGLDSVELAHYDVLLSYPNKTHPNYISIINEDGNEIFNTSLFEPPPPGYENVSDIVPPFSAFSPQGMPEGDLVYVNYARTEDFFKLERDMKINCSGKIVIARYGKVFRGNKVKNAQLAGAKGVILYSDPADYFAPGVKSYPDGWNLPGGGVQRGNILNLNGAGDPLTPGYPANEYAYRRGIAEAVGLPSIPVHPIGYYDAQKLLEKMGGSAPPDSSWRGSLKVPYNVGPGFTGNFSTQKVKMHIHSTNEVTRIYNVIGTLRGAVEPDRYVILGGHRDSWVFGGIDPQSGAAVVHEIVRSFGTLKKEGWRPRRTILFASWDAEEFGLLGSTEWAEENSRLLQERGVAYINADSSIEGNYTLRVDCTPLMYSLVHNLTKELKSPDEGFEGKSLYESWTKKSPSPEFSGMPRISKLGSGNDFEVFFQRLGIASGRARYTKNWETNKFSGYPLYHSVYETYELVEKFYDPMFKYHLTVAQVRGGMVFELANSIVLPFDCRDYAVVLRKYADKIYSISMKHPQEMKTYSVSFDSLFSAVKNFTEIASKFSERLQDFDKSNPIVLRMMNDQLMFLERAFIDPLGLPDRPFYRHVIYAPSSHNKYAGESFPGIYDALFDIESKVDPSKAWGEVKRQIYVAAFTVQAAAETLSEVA

Binder	pHrodo Green internalization assay, human PSMA Average EC50 (M)
B1	3.7e-10
B2	3.1e-10
B3	4.8e-10
B4	6.7e-10
B5	8e-10

Target: T1, human prostate specific membrane …
Assay: cell-based or functional assay
Remark: another data set of the same source

Binder	His-ZAP cell killing, human PSMA Average EC50 [nM]
B1	0.014
B2	0.023
B3	0.017
B4	0.069
B5	0.035
B6	0.017
B7	0.0079
B8	0.015
B9	0.014

What follows are binders tested against T2, cynomolgus PSMA, full-length, on CHO cells (cynomolgus, UniProt A0A2K5VNZ0 1-750) (assay: cell-based or functional assay).

Binder	His-ZAP cell killing, cyno PSMA EC50 [nM]	His-ZAP cell killing, cyno PSMA Average EC50 [nM]
B1	0.41	
B2	0.48	
B3	0.42	
B4	0.18	
B5	0.07	
B6		0.012
B7		0.0081
B8		0.011
B9		0.013

Target: T1, human prostate specific membrane …
Assay: cell-based or functional assay
Remark: another data set of the same source

Binder	Mean IC50, cytotoxicity on DU145 PSMA cells, 48 h [nM]
B10	> 300

Target: T1, human prostate specific membrane …
Assay: cell-based or functional assay
Remark: another data set of the same source

Binder	IC50 (nM), PSMA-DU145 cytotoxicity assay (72 h) [nM]	IC50 (toxin) (nM), PSMA-DU145 cytotoxicity assay (72 h) [nM]
B10	> 100	> 100

Target: T2, cynomolgus PSMA, full-length, on CHO …
Assay: cell-based or functional assay
Remark: another data set of the same source

Binder	EC50 (read off the curve): pHrodo Green internalisation signal FL2, CHO cells expressing cynomolgus PSMA [M]
B11	~2e-09

Each binder was assayed against T1, human prostate specific membrane … (assay: FMAT direct cell binding, LNCap cells).

Binder	EC50 [nM]
B1	0.119
B2	0.0424
B3	0.0754
B4	0.153
B5	0.0113

Each binder was assayed against T1, human prostate specific membrane … (assay: FMAT direct cell binding, DU145 PSMA cells).

Binder	EC50 [nM]
B1	0.076
B2	0.0495
B3	0.0594
B4	0.229
B5	0.218

These binders were tested against T2, cynomolgus PSMA, full-length, on CHO … (assay: FMAT direct cell binding, CHO cyno PSMA cells).

Binder	EC50 [nM]
B1	0.217
B2	0.124
B3	0.146
B4	0.613
B5	0.308

Each binder was assayed against T1, human prostate specific membrane … (assay: FMAT direct cell binding, CHO human PSMA cells).

Binder	EC50 [nM]
B1	0.0863
B2	0.0586
B3	0.068
B4	0.123
B5	0.1

These binders were tested against T1, human prostate specific membrane … (assay: FMAT direct cell binding, human PSMA-CHO cells).

Binder	EC50 [nM]
B6	0.287
B7	0.281
B8	0.333
B9	0.306

What follows are binders tested against T3, recombinant human PSMA (R&D, cat. no. 4234-ZN) (human, UniProt Q04609 44-750) (assay: Octet RED384 BLI, PSMA on sensor, VH series from 0.375 ug/ml).
T3 construct: Bought protein; also called rhPSMA; Recombinant PMSA
T3 sequence (Q04609 44-750 limits assumed): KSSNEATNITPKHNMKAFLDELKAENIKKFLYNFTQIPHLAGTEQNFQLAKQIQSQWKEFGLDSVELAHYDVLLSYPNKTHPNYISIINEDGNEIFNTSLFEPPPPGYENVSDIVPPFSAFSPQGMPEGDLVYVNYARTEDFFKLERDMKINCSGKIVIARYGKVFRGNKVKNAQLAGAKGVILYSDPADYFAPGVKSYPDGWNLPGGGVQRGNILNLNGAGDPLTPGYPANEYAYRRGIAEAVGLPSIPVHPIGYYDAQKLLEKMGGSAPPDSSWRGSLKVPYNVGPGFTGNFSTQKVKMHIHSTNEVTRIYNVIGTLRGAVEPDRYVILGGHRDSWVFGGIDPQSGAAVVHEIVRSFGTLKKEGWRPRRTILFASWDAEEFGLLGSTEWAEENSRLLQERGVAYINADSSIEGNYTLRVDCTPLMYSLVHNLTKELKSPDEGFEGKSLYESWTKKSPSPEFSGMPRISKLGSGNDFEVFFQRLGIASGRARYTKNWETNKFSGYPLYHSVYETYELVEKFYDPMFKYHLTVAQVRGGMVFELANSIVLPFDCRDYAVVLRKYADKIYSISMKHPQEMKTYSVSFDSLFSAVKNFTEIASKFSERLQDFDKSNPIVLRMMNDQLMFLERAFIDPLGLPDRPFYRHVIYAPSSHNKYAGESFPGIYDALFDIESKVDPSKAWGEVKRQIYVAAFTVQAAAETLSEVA

Binder	Kd [nM]	koff [s⁻¹]
B1	0.8	0.000495
B2	0.59	0.000572
B3	0.44	0.000365

Target: T3, recombinant human PSMA (R&D, cat. no. …)
Assay: as above
Remark: another data set of the same source

Binder	Kd [nM]	koff [s⁻¹]
B4	2.62	0.00244
B5	0.76	0.000726

These binders were tested against T3, recombinant human PSMA (R&D, cat. no. …) (assay: Octet RED384 BLI, PSMA on sensor, VH purified from periplasmic extracts).

Binder	Kd [nM]	koff [s⁻¹]
B11	30	0.0091

These binders were tested against T1, human prostate specific membrane … (assay: FMAT cell binding, huPSMA CHO cells, after 1 day in human serum at 37 C).

Binder	EC50 [nM]
B6	0.0605
B7	0.0725
B8	0.0944
B9	0.086

What follows are binders tested against T1, human prostate specific membrane … (assay: FMAT cell binding, huPSMA CHO cells, after 0 days in human serum at 37 C).

Binder	EC50 [nM]
B6	0.0892
B7	0.0639
B8	0.0741
B9	0.0902

The binders below were run against T1, human prostate specific membrane … (assay: FMAT cell binding, huPSMA CHO cells, after 4 days in human serum at 37 C).

Binder	EC50 [nM]
B6	0.0736
B7	0.0844
B8	0.0628
B9	0.1

The binders below were run against T1, human prostate specific membrane … (assay: FMAT cell binding, huPSMA CHO cells, after 7 days in human serum at 37 C).

Binder	EC50 [nM]
B6	0.0865
B7	0.101
B8	0.0675
B9	0.107

Each binder was assayed against T1, human prostate specific membrane … (assay: FMAT cell binding, huPSMA CHO 1A10 cells, after 1 day in human serum at 37 C).

Binder	EC50 [nM]
B4	0.291
B5	0.21

Target: T1, human prostate specific membrane …
Assay: as above
Remark: another data set of the same source

Binder	EC50 [nM]
B1	0.208
B2	0.311
B3	0.243

These binders were tested against T1, human prostate specific membrane … (assay: FMAT cell binding, huPSMA CHO 1A10 cells, after 0 days in human serum at 37 C).

Binder	EC50 [nM]
B4	0.305
B5	0.23

The binders below were run against T1, human prostate specific membrane … (assay: FMAT cell binding, huPSMA CHO 1A10 cells, after 4 days in human serum at 37 C).

Binder	EC50 [nM]
B4	0.34
B5	0.228

What follows are binders tested against T1, human prostate specific membrane … (assay: FMAT cell binding, huPSMA CHO 1A10 cells, after 7 days in human serum at 37 C).

Binder	EC50 [nM]
B4	0.328
B5	0.238

Target: T1, human prostate specific membrane …
Assay: FMAT cell binding, huPSMA CHO 1A10 cells, after 0 days in human serum at 37 C
Remark: another data set of the same source

Binder	EC50 [nM]
B1	0.234
B2	0.304
B3	0.165

Target: T1, human prostate specific membrane …
Assay: FMAT cell binding, huPSMA CHO 1A10 cells, after 4 days in human serum at 37 C
Remark: another data set of the same source

Binder	EC50 [nM]
B1	0.227
B2	0.319
B3	0.242

Target: T1, human prostate specific membrane …
Assay: FMAT cell binding, huPSMA CHO 1A10 cells, after 7 days in human serum at 37 C
Remark: another data set of the same source

Binder	EC50 [nM]
B1	0.278
B2	0.313
B3	0.236

Each binder was assayed against T2, cynomolgus PSMA, full-length, on CHO … (assay: FMAT Mirrorball direct cell binding, purified His-tagged VH titrated on CHO cells expressing cynomolgus PSMA, FL2 median binding signal [panel cynoPSMA-CHO binding]).

Binder	EC50 (read off the curve) [nM]
B12	~1
